We go through one molecule from patent US11820973B2, “Methods and system for interfering with viability of bacteria and related compounds and compositions” (CALIFORNIA INSTITUTE OF TECHNOLOGY, priority 2011, dated 2023).

In test [1] the test system is P. aeruginosa PA14 biofilm. In words: MBEC assay, anaerobic biofilm prevention. The format is cell-based, Pseudomonas aeruginosa. As to conditions: 100 μM conalbumin, ˜10 μM Fe(II) and 10 μM Fe(III) present. The protocol: (§1) In some examples, biofilm prevention and dissolution were measured via a high-throughput biofilm assay (MBEC Physiology and Genetics Assay) consisting of a 96-well plate into which a 96-peg plastic lid fits. This lid also fits over a standard 96-well plate, which was subsequently used to test the efficacy of iron chelators. Inoculum was prepared by diluting (30-fold) a 1.0 McFarland suspension of P. aeruginosa PA14 in TSB. 150 μl, was dispensed into each of the 60 inner wells, while 200 μl, of sterile trypticase soy broth (TSB) was placed in each perimeter well. For dissolution experiments, plates were incubated at 37° C. for 24 h, and were transferred to an anaerobic chamber for 24 h at 37° C. in anaerobic TSB containing 50 mM KNO3. Biofilms were then exposed to conalbumin and/or Ferrozine® for 24 h. Each treatment was complemented with the addition of 80 μM ferrous ammonium sulfate. After treatment, lids were rinsed once in 50 mM HEPES, air dried for 10 min and quantified by crystal violet staining. For biofilm prevention, anaerobic inoculum was amended with conalbumin and/or Ferrozine®. Media was replaced every 24 h by transferring the MBEC lid to a sterile plate containing growth media+/− treatments, and biofilms were allowed to develop for 168 h. Biomass was quantified as described above. Biological triplicates and six technical replicates (n=18) were used for each treatment.

Test [2] deals with P. aeruginosa PA14 mature biofilms. In words: MBEC assay, dissolution of mature biofilms. As to conditions: conalbumin; mature biofilms; 24 h exposure. The format is cell-based, Pseudomonas aeruginosa. The protocol: as §1
The subject of test [3] is P. aeruginosa PA14 wild type. The test can be described thus: Flow cell biofilm development, wild type, 1% TSB with or without conalbumin.
The subject of another test is P. aeruginosa. The test can be described thus: Planktonic growth rates with iron chelators. The format is cell-based, Pseudomonas aeruginosa.
Setting [4] is: Day 6, WT, 40 μg/ml conalbumin, 10 μM PCA or PYO.

B1: conalbumin: Fe(III)-binding protein of the transferrin family, an Fe(III) chelator; substantially iron-free, from Sigma-Aldrich (protein, UniProt P02789 20-705, looked up)
Ovotransferrin: APPKSVIRWCTISSPEEKKCNNLRDLTQQERISLTCVQKATYLDCIKAIANNEADAISLDGGQAFEAGLAPYKLKPIAAEVYEHTEGSTTSYYAVAVVKKGTEFTVNDLQGKTSCHTGLGRSAGWNIPIGTLLHRGAIEWEGIESGSVEQAVAKFFSASCVPGATIEQKLCRQCKGDPKTKCARNAPYSGYSGAFHCLKDGKGDVAFVKHTTVNENAPDQKDEYELLCLDGSRQPVDNYKTCNWARVAAHAVVARDDNKVEDIWSFLSKAQSDFGVDTKSDFHLFGPPGKKDPVLKDLLFKDSAIMLKRVPSLMDSQLYLGFEYYSAIQSMRKDQLTPSPRENRIQWCAVGKDEKSKCDRWSVVSNGDVECTVVDETKDCIIKIMKGEADAVALDGGLVYTAGVCGLVPVMAERYDDESQCSKTDERPASYFAVAVARKDSNVNWNNLKGKKSCHTAVGRTAGWVIPMGLIHNRTGTCNFDEYFSEGCAPGSPPNSRLCQLCQGSGGIPPEKCVASSHEKYFGYTGALRCLVEKGDVAFIQHSTVEENTGGKNKADWAKNLQMDDFELLCTDGRRANVMDYRECNLAEVPTHAVVVRPEKANKIRDLLERQEKRFGVNGSEKSKFMMFESQNKDLLFKDLTKCLFKVREGTTYKEFLGDKFYTVISSLKTCNPSDILQMCSFLEGK
modifications: iron-free
notes: substantially iron-free, from Sigma-Aldrich
For the molecule B1, the “Prevention of biofilm growth” value in test [1] is on record as “ineffective in preventing biofilm growth”. The “Reduction of established biomass” value in test [2] is given as “did not significantly reduce established biomass”. In test [3] (setting [4]), the Max. biofilm thickness came out at 32 μm and the Substratum coverage came out at 11.8 ± 1.3%. Besides, the Total biomass in test [3] (Day 6, WT, additives to 1% TSB: 40 μg/ml conalbumin, 10 μM PCA or PYO) is listed as 0.80 ± 0.08 μm^3/μm^2. Also, the “Avg. thickness of biomass” value in test [3] (Day 6, WT, calculated for the area covered by biomass, 40 μg/ml conalbumin, 10 μM PCA or PYO) is 9.0 ± 0.7 μm. In test [3] (wild type, 1% TSB, 40 μg/ml conalbumin), the “Biofilm formation with conalbumin (iron-free form) added” value is listed as “neither strain formed biofilms”. Besides, the “Effect on planktonic growth rates” value in the test with P. aeruginosa was “Neither compound affected planktonic growth rates”.
